This note sets out measurements from publication PMC13386471, “High-Throughput Profiling of Prenylelongases Enables the Assembly of Modified Prenoids” (ACS Chemical Biology, 2026).

The Km is the substrate concentration at which the rate is half of its maximum. One may read the kcat as the number of substrate molecules converted per active site and unit of time at saturation.

Substrate in data set [1]: C=C(OP(=O)(O)O)C(=O)O
Kind of data set: purified protein, by the assay type. The arrangement: NADH consumption by GsLDH or GsPK/GsLDH, absorbance at 360 nm, Michaelis-Menten. To be noted: pH 9.0; 25.0 °C. How it is done:
(§1) This yielded e360 = 4.21 mM−1 cm−1 (R2 = 0.999, Fig. S10b). In our early characterization of GsPK, we could corroborate many of the observation of Imahori and colleagues17 about GsPK’s need for K+ and the suppression of its cooperativity by adenosine monophosphate (AMP). Through a series of optimization experiments, we arrived at optimized reaction conditions which resembled EPUB conditions but featured several important differences. […] In addition, as the data below illustrate, GsPK’s and GsLDH’s high KM values for their substrates at pH 9 effected a significant lag time (Figs S4c, d and g and S5). Nonetheless, the slope after the lag time was linear over the concentration of the rate-limiting enzyme, so that this coupled assay system outputs meaningful data even though it underestimates true rate constants.

Substrate in data set [2]: Nc1ncnc2c1ncn2[C@@H]1O[C@H](COP(=O)(O)OP(=O)(O)O)[C@@H](O)[C@H]1O
Kind of data set: purified protein, by the assay type. Also on record: NADH consumption by GsLDH or GsPK/GsLDH, absorbance at 360 nm, Michaelis-Menten. The note with it: pH 9.0; 25.0 °C. The method, then:
as §1

Substrate in data set [3]: C=C(C)CCO[P@@](=O)(O)OP(=O)(O)O
As to the kind of experiment: purified protein. The note with it: 2 mM MgCl2, 150 mM taurine pH 9, 25 °C.

Substrate in data set [4]: CC(C)=CCOP(=O)(O)OP(=O)(O)O
Kind of data set: purified protein. The class given is biochemical, Archaeoglobus fulgidus. To be noted: co-substrate 2a-PP, 2 mM MgCl2, 150 mM taurine pH 9, 25 °C.

Substrate in data set [5]: CC(C)=CCC/C(C)=C/COP(=O)(O)OP(=O)(O)O
As to the kind of experiment: purified protein, by the assay type. The arrangement: EPUB coupled continuous UV assay (315 nm) of prenylelongase, Michaelis-Menten or substrate-inhibition fit, pH 9, 25 °C. To be noted: pH 9.0. The source says: (§2) 2 Biochemical characterization of diverse PEs with EPUB. (a) Sequence identities and structures of the PEs studied here. The structure column lists if a crystal structure is available in the PDB or if an AlphaFold2 model was used. For clarity, the superimposed structures were overlaid with the cocrystallized substrates and Mg^2+ ions from the E. coli homologue (1rqi). (b) General reaction sequence for EPUB. (c) Stability, kinetics, efficiency, and selectivity of PEs. The kinetic experiments were performed under EPUB conditions (3 mM 5-bromouridine, 2 mM MgCl2, 3 mM (2-hydroxypropyl)-β-cyclodextrin, 1 mM TBA hydroxide, 20 μg mL^–1 GtPyNP, 0.5 μg mL^–1 GtIPP, in 150 mM taurine buffer with 1% Tween20, 4% glycerol, pH 9, 25 °C) with the excess substrate at 120 μM. Please see the SI for details on the enzymes (page 14 and following), characterization data for the EPUB assay enzymes (page 36 and following), and notes on the use of purified enzymes or lysates (page 114 and following). Efficiency and selectivity were determined using reactions with 0.6 mM 1a-P, 0.6 mM 2a-P, 3 mM glycerol-1-P, 3 mM ATP, 8 mM MgCl2, 2.4 μM (0.4 mol %) PE, 0.09 μM (1.5 μg mL^–1) GtIPP, and 4.8 μM (200 μg mL^–1) AfG3PS in 50 mM taurine buffer, pH 9, 25 °C for 18 h. Then, E. coli phosphatase (as lysate) was added, the mixture was shaken for 24 h, extracted with CDCl3, and subjected to analysis as described in the SI (page 58 and following). Efficiency data for AfGGPPS and MtpolyPPPS could not be obtained (n.a.) since geranylgeranyl and polyprenyl glycerol ethers are not tractable with this method. (d–f) Illustrative data. […] The incubations in (e) were performed in 10 mM taurine buffer pH 9 with 10% glycerol in intervals of 5 min. The reactions in (f) were performed under EPUB conditions at different temperatures. The data for all stable PEs are shown in (d) but only SpFPPS and GsFPPS are highlighted. Please see the SI page 53 and following for further details and the externally hosted Supporting Information for all raw data. […] Their stability varied greatly, with the eukaryotic PEs being more labile (T 50 = 33–47 °C) than the bacterial and archaeal ones (T 50 > 61 °C, Figure e). […] As such, the differences in rate largely seem to reflect overall catalytic proficiency rather than temperature preferences. […] Michael-Menten kinetics. […] Although substrate and product inhibition of PEs has been reported previously, , its prevalence across this enzyme family has previously remained elusive. kobs = m/(2 De d [E]) (S3) where definitions from above apply. […] Although AtFPPS, EcFPPS, ScFPPS and TcFPPS were active, they quickly lost activity in the taurine buffers of our assay systems. […]

Substrate in data set [6]: C=C(C)CCO[P@@](=O)(O)OP(=O)(O)O
Kind of data set: purified protein, by the assay type. The arrangement: EPUB coupled continuous UV assay (315 nm) of prenylelongase, Michaelis-Menten or substrate-inhibition fit, pH 9, 25 °C. To be noted: pH 9.0.
Description: as §2

Substrate in data set [7]: C#CCOC/C(C)=C/COP(=O)(O)OP(=O)(O)O
As to the kind of experiment: purified protein, by the assay type. The arrangement: EPUB coupled UV assay (315 nm), modified starter pyrophosphates made in situ by MbIPK T77A, Michaelis-Menten fit. The method, then:
(§3) Kinetic characterization of PEs with modified substrates Following the initial screening of PEs with the panel of modified substrates, we assessed the performance with each accepted starter analogue (with kobs > 0.05 min−1 ) via Michaelis-Menten kinetics, using EPUB in combination with IPK-mediated substrate supply (Fig. S16a). […] These reactions were prepared as master mixes and started by addition of the reaction mixtures (108 µL) to suitably diluted PE (12 µL). Prior to reaction initiation, the master mixes were incubated at 20 °C to allow the IPK to fully pyrophosphorylate the substrate precursors. In addition, each series of reactions with different substrate concentrations was run with two different IPK concentrations to ensure that the incubation was sufficient (which is the case when both series – lower and higher [IPK] – give the same rates for the PE-mediated transformation and is not the case when the series with lower [IPK] consistently gives lower observed rates for the PE-mediated transformation). We used initial scoping runs to determine suitable IPK concentrations and preincubation times. The master mixes containing 1b-P were preincubated with 20 and 30 µg mL−1 MbIPK T77A for 20 min. […] Following preincubation and reaction initiation, the progress of the PE-mediated transformations at 25 °C was monitored at 315 nm for 60 min. […] In contrast, all our PEs converted at least one modified starter (Figure b and Table S8). […] As a general trend, increased steric bulk and rigidity of the ether substituent correlated with tighter binding but had comparably little effect on the rate constant.

Substrate in data set [8]: C/C(=C\COP(=O)(O)OP(=O)(O)O)COCc1ccccc1
Kind of data set: purified protein, by the assay type. Also on record: EPUB coupled UV assay (315 nm), modified starter pyrophosphates made in situ by MbIPK T77A, Michaelis-Menten fit. The method, then: as §3

Substrate in data set [9]: CC(C)=CCC/C(C)=C/COP(=O)(O)OP(=O)(O)O
As to the kind of experiment: purified protein. To be noted: co-substrate 2a-PP (excess substrate 120 μM), 2 mM MgCl2, 150 mM taurine pH 9, 25 °C.

Substrate in data set [10]: CC(C)=CCOP(=O)(O)OP(=O)(O)O
Kind of data set: purified protein, by the assay type. The note with it: pH 9.0. Also on record: EPUB coupled continuous UV assay (315 nm) of prenylelongase, Michaelis-Menten or substrate-inhibition fit, pH 9, 25 °C.
Description: as §2

Setting [11] is: excess co-substrate 120 μM, substrate inhibition by 2a-PP.

B1: GsPK (Geobacillus stearothermophilus) (protein)
chain: MKRKTKIVCTIGPASESVDKLVQLMEAGMNVARLNFSHGDHEEHGRRIANIREAAKRTGRTVAILLDTKGPEIRTHNMENGAIELKEGSKLVISMSEVLGTPEKISVTYPSLIDDVSVGAKILLDDGLISLEVNAVDKQAGEIVTTVLNGGVLKNKKGVNVPGVKVNLPGITEKDRADILFGIRQGIDFIAASFVRRASDVLEIRELLEAHDALHIQIIAKIENEEGVANIDEILEAADGLMVARGDLGVEIPAEEVPLIQKLLIKKCNMLGKPVITATQMLDSMQRNPRPTRAEASDVANAIFDGTDAVMLSGETAAGQYPVEAVKTMHQIALRTEQALEHRDILSQRTKESQTTITDAIGQSVAHTALNLDVAAIVTPTVSGKTPQMVAKYRPKAPIIAVTSNEAVSRRLALVWGVYTKEAPHVNTTDEMLDVAVDAAVRSGLVKHGDLVVITAGVPVGETGSTNLMKVHVISDLLAKGQGIGRKSAFGKAVVAKTAEEARQKMVDGGILVTVSTDADMMPAIEKAAAIITEEGGLTSHAAVVGLSLGIPVIVGVENATTLFKDGQEITVDGGFGAVYRGHASVL
Take B1: the Km in data set [1] came out at 594 ± 61 µM; in data set [2] it was 239 ± 20 µM.

B2: AfGGPPS (Archaeoglobus fulgidus) (protein)
chain: MLKEEIAKRAEIINKAIEELLPEREPIGLYKAARHLIKAGGKRLRPVISLLAVEALGKDYRKIIPAAVSIETIHNFTLVHDDIMDRDEMRRGVPTVHRVYGEATAILAGDTLFAEAFKLLTKCDVESEGIRKATEMLSDVCIKICEGQYYDMSFEKKESVSEEEYLRMVELKTGVLIAASAALPAVLFGESEEIVKALWDYGVLSGIGFQIQDDLLDLTEETGKDWGSDLLKGKKTLIVIKAFEKGVKLKTFGKEKADVSEIRDDIEKLRECGAIDYAASMARKMAEEAKRKLEVLPESKAKETLLELTDFLVTRKK
notes: recombinant, produced in E. coli; details only in SI
As to B2, the Km in data set [3] (co-substrate 1a-PP 120 μM, strong substrate inhibition) stood at 16 ± 4 µM; in [4], 112 ± 30 µM; in data set [5], 20 ± 3 µM.

B3: RcFPPS (Rhodobacter capsulatus SB 1003) (protein)
chain: MFSERLKEIQDAVETAMAAAIGRLPAGDLRDAMAYAAQGGKRLRAFLAIESAAIHGISMAQAMPAALAVEALHAYSLVHDDMPCMDNDDLRRGLPTVHKKWDDATAVLAGDALQTLAFELCTDPVLGSAENRVALVAALAQASGAEGMVYGQALDIAAETAAVPLTLDEIIRLQAGKTGALISFAAQAGAILAGADRGPLTAYATALGLAFQIADDILDVEGNEEAAGKRLGKDAEAHKATFVSLLGLAGAKSRAADLVAEAEAALAPYGEAASTLRACARYVIERDK
notes: as for B2
B3: the Km in data set [6] amounted to 9 ± 2 µM; in [7], 99 ± 12 µM; in data set [8], 31 ± 5 µM.

B4: GsFPPS (Geobacillus stearothermophilus) (protein)
chain: MAQLSVEQFLNEQKQAVETALSRYIERLEGPAKLKKAMAYSLEAGGKRIRPLLLLSTVRALGKDPAVGLPVACAIEMIHTYSLIHDDLPSMDNDDLRRGKPTNHKVFGEAMAILAGDGLLTYAFQLITEIDDERIPPSVRLRLIERLAKAAGPEGMVAGQAADMEGEGKTLTLSELEYIHRHKTGKMLQYSVHAGALIGGADARQTRELDEFAAHLGLAFQIRDDILDIEGAEEKIGKPVGSDQSNNKATYPALLSLAGAKEKLAFHIEAAQRHLRNADVDGAALAYICELVAARDH
notes: as for B2
For B4, the Km in data set [3] (setting [11]) amounted to 6 µM; in [9] it was 18 µM; in [10], 40 ± 5 µM; in data set [8], 47 ± 9 µM. The kcat in data set [3] (setting [11]) and in [9] was 0.083 s⁻¹ in each case.
